*: point of attachment. fluorescein = fluorescein label on the N-terminus; Farnesyl = CC(C)=CCC/C(C)=C/CC/C(C)=C/C*; FAM = fluorescein
Columns and labels:
Conditions in all cases: both partners purified
PDE6D M20K, untagged = biological target: T1, PDE6D M20K, untagged (UniProt O43924 1-150, M20K); assay: fluorescence polarisation; fluorescein-labeled KRAS S3I1 peptide at 5 nM, PDE6D 0-512 nM in twofold dilutions; 20 mM Tris pH 7.5, 150 mM NaCl, 2 mM DTT; quadratic fit in GraFit
T1 construct: PDE6D with M20K; Printed as 'untagged PDE6D.M20K' in the pulldown and release assay; also called attenuated PDE6D

[1] = biological target: T2, PDE6D (phosphodiesterase 6 delta), wild type, polyhistidine tag removed (UniProt O43924 1-150); assay: as above
T2 construct: Cloned into pRSF-Duet and pBDDB-SPR3; also called PDE6D WT; WT PDE6D; source: E. coli BL21 DE3, purified (HisTrap, TEV protease, reverse HisTrap, Superdex S75)

[2] = biological target: T2, PDE6D (phosphodiesterase 6 delta), wild …; assay: fluorescence polarisation; fluorescein-…(OMe)-Far at 500 nM, PDE6D 20 to 0.156 μM in twofold dilutions, without or with compound at 500 μM; 20 mM Tris pH 7.5, 150 mM NaCl, 2 mM DTT, 5% DMSO

B1: KRAS S3I1 peptide, fluorescein-DGKKKKKKSSTIC(OMe)-farnesyl (peptide)
peptide: fluorescein-DGKKKKKKSSTIC(Farnesyl)-OMe
notes: also called KRAS S3I1 variant; source: synthetic peptide (JPT Innovative Peptide Solutions)
Q: What does the source list for B1?
A: Kd (PDE6D M20K, untagged): 2.62 ± 1.7 nM; Kd [1]: 0.05 nM

B2: fluorescein-labeled KRAS HVR peptide, FAM-KKKKKKSKTKC(OMe)-Far (peptide)
peptide: {FAM}-KKKKKKSKTKC(Farnesyl)-OMe
notes: wild-type KRAS (KRAS4B) HVR peptide ending at the farnesylated C185; also called KRAS WT peptide
Q: Does B2 bind [2]?
A: binds

Reference: publication PMC8842248 (Journal of Medicinal Chemistry, 2022)
